These are literature values, as cited in PMC9785887.

The target in series [1] is Neuropilin-1 (Homo sapiens) (UniProt O14786).
Series [2] has as its target Integrin αvβ6 (Homo sapiens) (UniProt P06756).
Chain of UniProt P06756 (P06756 31-992, chain 1 of 2): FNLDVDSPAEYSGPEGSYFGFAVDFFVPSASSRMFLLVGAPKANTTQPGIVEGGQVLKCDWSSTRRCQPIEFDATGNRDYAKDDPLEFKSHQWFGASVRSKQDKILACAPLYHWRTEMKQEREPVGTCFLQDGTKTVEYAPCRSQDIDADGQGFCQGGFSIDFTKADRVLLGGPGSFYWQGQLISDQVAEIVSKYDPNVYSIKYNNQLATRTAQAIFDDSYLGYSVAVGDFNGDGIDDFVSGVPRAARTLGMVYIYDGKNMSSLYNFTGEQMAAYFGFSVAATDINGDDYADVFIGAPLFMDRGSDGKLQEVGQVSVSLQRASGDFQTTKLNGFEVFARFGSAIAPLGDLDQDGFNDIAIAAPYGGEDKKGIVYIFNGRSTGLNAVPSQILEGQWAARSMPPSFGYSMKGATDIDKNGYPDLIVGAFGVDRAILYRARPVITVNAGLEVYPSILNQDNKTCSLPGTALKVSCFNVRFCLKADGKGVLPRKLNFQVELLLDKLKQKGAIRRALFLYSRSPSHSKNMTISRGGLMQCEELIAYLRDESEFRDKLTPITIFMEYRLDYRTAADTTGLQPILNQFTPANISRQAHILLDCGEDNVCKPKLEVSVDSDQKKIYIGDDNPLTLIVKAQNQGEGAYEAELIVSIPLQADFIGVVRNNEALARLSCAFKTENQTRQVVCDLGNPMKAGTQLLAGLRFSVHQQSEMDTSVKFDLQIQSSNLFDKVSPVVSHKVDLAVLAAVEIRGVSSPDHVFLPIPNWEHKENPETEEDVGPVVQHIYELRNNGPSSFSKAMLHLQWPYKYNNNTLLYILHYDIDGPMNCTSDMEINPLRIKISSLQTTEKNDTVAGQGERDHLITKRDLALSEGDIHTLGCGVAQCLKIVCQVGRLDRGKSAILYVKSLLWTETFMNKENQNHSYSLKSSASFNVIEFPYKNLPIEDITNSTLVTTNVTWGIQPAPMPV
Chain of UniProt P06756 (P18564 22-709, chain 2 of 2, further chain): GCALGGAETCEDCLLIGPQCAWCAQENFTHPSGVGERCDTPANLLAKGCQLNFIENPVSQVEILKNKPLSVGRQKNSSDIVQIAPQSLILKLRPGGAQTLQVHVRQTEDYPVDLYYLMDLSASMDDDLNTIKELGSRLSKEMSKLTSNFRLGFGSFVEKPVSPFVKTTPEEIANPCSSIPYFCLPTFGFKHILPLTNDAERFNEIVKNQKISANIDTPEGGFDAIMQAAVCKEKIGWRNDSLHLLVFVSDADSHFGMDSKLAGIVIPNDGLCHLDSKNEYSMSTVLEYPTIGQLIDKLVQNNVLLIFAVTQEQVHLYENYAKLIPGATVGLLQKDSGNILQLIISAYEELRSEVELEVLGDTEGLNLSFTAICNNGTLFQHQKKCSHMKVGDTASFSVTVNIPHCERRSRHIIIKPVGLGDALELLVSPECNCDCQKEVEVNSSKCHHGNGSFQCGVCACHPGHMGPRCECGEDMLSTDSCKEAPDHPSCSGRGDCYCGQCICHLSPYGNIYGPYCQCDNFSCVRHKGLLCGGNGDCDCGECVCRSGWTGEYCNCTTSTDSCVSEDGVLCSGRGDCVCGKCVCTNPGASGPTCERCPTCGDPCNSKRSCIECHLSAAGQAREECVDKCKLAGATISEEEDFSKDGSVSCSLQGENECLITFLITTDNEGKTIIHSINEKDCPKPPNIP

Chain of UniProt O14786 (O14786 22-856): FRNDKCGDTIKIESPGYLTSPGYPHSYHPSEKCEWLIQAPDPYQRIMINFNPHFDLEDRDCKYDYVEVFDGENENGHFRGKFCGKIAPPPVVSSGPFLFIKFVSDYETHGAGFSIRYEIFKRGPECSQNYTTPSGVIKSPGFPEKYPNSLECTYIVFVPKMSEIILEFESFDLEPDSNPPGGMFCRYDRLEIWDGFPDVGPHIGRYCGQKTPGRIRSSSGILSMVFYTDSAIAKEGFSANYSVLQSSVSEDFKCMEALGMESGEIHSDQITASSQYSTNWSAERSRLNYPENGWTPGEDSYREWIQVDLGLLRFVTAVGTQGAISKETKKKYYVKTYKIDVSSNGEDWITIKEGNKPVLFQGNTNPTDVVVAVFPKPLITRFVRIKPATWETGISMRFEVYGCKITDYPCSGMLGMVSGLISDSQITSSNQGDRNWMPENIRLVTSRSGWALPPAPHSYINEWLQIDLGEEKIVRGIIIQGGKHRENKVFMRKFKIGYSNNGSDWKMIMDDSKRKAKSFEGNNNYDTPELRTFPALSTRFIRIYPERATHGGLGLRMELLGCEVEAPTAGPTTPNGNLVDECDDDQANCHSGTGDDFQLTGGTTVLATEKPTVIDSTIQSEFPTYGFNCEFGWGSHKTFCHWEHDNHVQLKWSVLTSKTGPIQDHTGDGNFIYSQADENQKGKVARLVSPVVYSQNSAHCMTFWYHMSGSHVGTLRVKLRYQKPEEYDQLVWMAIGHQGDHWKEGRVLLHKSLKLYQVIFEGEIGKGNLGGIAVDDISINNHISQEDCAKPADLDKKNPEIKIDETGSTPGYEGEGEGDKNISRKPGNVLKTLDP
Chain of Chromogranin A peptide CgA39-63 (P10645 57-81): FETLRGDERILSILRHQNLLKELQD

Usually Kd stands for the equilibrium constant for the complex coming apart. Turning to “Chromogranin A 1-373 1-373 (from UniProt P10645)”, the dissociation constant Kd in series [1] was 3.49 nM. The term Ki denotes the equilibrium dissociation constant of an inhibitor or competing ligand from its target. Consider Chromogranin A peptide CgA39-63, for which the Ki in series [2] was 15.5 nM.
